Drawing on paper PMC3630358, this text covers stoichiometry N for one substance.

For the test, the target named is TraF/VirB10 C-terminal domain starting at N161 (elastase-cleaved, C-terminal Strep-tag) (Escherichia coli (plasmid pKM101)) (UniProt Q46705). In words: cryo-EM structure.

The substance “TraF/VirB10 C-terminal domain starting at N161 (elastase-cleaved, C-terminal Strep-tag) (from UniProt Q46705 161-386) (domain or fragment)” came in with a stoichiometry N of 14.

One may read the stoichiometry N as a count of units in the complex or per binding partner.
